Source: article PMC7113243

Target: GST-tagged ID5 (human) (UniProt Q92793)
Assay: BLI; GST-tagged ID5 immobilised on the biosensors; IQGAP1-F 0.1 to 19 uM, twelve concentrations; association and dissociation 60 s each; RT; double referenced against buffer and GST; steady state fitted 1:1

IQGAP1-F, His-tagged IQGAP1 construct (residues 286-592 of IQGAP1) (from UniProt P46940 286-592) (domain or fragment)
Kd: 400 nM
